In assay [1] the target is recombinant His-tagged human FcγRIa (Sino Biological 10256-H08S-B) (human, UniProt P12314 16-288). Briefly: SPR (Biacore), His-tagged FcγR captured on anti-His chip, antibody injected, resonance units after background subtraction. For orientation: In SPR one partner is held on a chip, and binding of the other changes the refractive index at the surface.
Assay [2] deals with T1, recombinant His-tagged human FcγRIIa, 167-His [H] / H131 variant (human, UniProt P12318 34-218, limits assumed).
T1 construct: catalogue numbers differ; also called FcγRIIa-H; FcγRIIa-H131
T1 sequence (looked up): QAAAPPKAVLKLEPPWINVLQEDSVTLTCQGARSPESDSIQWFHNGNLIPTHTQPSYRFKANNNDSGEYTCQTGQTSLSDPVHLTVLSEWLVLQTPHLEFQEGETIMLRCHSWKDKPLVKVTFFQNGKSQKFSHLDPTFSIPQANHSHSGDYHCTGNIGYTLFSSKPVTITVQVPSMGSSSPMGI
The assay is described as above.

In assay [3] the target is T2, recombinant His-tagged human FcγRIIa, 167-Arg [R] / R131 variant (human, UniProt P12318 34-218, limits assumed).
T2 construct: catalogue numbers differ; also called FcγRIIa-R; FcγRIIa-R131
T2 sequence (looked up): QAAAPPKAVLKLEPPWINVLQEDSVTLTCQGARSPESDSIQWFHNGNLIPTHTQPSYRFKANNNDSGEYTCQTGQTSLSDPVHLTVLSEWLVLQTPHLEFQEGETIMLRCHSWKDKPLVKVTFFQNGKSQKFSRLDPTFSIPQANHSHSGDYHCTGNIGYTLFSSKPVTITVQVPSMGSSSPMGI
The assay is described as above.

Assay [4] deals with T3, recombinant His-tagged human FcγRIIb (human, UniProt P31994 43-217, limits assumed).
T3 sequence (looked up): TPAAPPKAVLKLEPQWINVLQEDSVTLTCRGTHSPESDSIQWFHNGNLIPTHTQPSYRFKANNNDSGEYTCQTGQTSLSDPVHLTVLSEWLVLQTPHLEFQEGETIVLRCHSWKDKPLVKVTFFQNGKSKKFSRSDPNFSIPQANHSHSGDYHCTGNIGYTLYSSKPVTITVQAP
The description is as above.

Assay [5] concerns the target T4, recombinant His-tagged human FcγRIIIa, 176-Phe [F] / F158 variant (human, UniProt P08637 17-208).
T4 construct: also called FcγRIIIa-F; FcγRIIIa-F158
The assay is described as above.

For assay [6], the target named is T5, recombinant His-tagged human FcγRIIIa, 176-Val [V] / V158 variant (human, UniProt P08637 17-208).
T5 construct: also called FcγRIIIa-V; FcγRIIIa-V158
Described as above.

Assay [7] concerns the target T6, recombinant human neonatal Fc receptor FcRn (SinoBiological CT071-H27H-B) (human, UniProt P55899 24-297; P61769 21-119).
T6 construct: Composition of the bought protein is not described
As to the kind of experiment: SPR (Biacore 8K) at pH 6.0; FcRn captured by anti-His, antibody as analyte; average of three measurements; pH 6.0.

Assay [8] has as its target T1, recombinant His-tagged human FcγRIIa, …. As to the kind of experiment: SPR (Biacore 8K), His-tagged FcγR captured on anti-His chip, antibody injected, binding response (RU), n=3.
In assay [9] the target is T2, recombinant His-tagged human FcγRIIa, …. The assay is described as above.
For assay [10], the target named is T3, recombinant His-tagged human FcγRIIb. The description is as above.
Assay [11] deals with T7, human FcγRIa on the cell surface (transfected CHO-S cells, M0/M1 macrophages, hMDM, FcγRI effector reporter … (human, UniProt P12314 16-374)).
T7 construct: whole, on cells; also called CD64
As to the kind of experiment: flow cytometry on CHO-S cells transiently expressing human FcγRIa, PE goat anti-human IgG F(ab')2, % PE+ cells. (Flow cytometry measures light scatter and fluorescence of single cells or particles in a stream.)

Assay [12] concerns the target T5, recombinant His-tagged human FcγRIIIa, …. As to the kind of experiment: SPR (Biacore 8K), His-tagged FcγR captured on anti-His chip, antibody injected, binding response (RU), n=3.
In assay [13] the target is T4, recombinant His-tagged human FcγRIIIa, …. The assay is described as above.
For assay [14], the target named is cynomolgus monkey PD-1 on transfected CHO-S cells (cynomolgus monkey, UniProt B0LAJ3 25-288). Briefly: flow cytometry on CHO-S cells transiently transfected with cynomolgus monkey PD-1, PE goat anti-human IgG F(ab')2, gMFI (PE).
Assay [15] has as its target T8, human CD27 on the cell surface (T cells, transfected HEK293F cells, Daudi cells, NFκB-luc2/CD27 Jurkat cells) (human, UniProt P26842 20-240).
T8 construct: Full length human CD27, endogenous or transfected; also called TNFRSF7
As to the kind of experiment: flow cytometry on T cells in human PBMC (endogenous CD27), PE-labeled goat anti-human IgG, median MFI PE.

Assay [16] concerns the target T8, human CD27 on the cell surface (T …). Briefly: flow cytometry on HEK293F cells transfected with human CD27, PE-labeled goat anti-human IgG, median MFI PE.
The target of assay [17] is human CD27-A59T variant on transfected HEK293F cells (human, UniProt P26842 20-260). As to the kind of experiment: flow cytometry on HEK293F cells transfected with human CD27-A59T, PE-labeled goat anti-human IgG, median MFI PE.
For assay [18], the target named is T9, cynomolgus monkey CD27 on the cell surface (T cells, transfected HEK293F cells) (cynomolgus monkey, UniProt P26842 20-260 (human entry)).
T9 construct: also called Cyno CD27
T9 chain: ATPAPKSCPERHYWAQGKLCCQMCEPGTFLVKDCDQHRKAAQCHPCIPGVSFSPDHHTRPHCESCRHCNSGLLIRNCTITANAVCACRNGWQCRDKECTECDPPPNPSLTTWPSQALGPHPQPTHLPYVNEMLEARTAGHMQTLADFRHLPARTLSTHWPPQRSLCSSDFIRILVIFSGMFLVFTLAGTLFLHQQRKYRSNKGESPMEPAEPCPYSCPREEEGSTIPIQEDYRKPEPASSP
As to the kind of experiment: flow cytometry on T cells in cynomolgus monkey PBMC (endogenous CD27), PE-labeled goat anti-human IgG, median MFI PE.

The target of assay [19] is T9, cynomolgus monkey CD27 on the cell …. Briefly: flow cytometry on HEK293F cells transfected with cynomolgus monkey CD27, PE-labeled goat anti-human IgG, median MFI PE.
Assay [20] concerns the target T10, human complement protein C1q (from normal human serum) (human, UniProt P02745 23-245; P02746 28-253; P02747 29-245).
T10 construct: Native C1q supplied as 20% normal human serum
As to the kind of experiment: flow cytometry, C1q (20% normal human serum) binding to antibody bound on human T cells, FITC anti-C1q.

In assay [21] the target is T10, human complement protein C1q (from …). As to the kind of experiment: flow cytometry, C1q (20% normal human serum) binding to antibody bound on human T cells, FITC anti-C1q, median MFI FITC.

The term EC50 (read off the curve) denotes the concentration that produces a half-maximal response. Usually Kd stands for the equilibrium constant for the complex coming apart. The koff is the first-order rate constant of dissociation. One may read the kon as the rate constant with which the complex forms.

T10 sequence (P02745 23-245, chain 1 of 3): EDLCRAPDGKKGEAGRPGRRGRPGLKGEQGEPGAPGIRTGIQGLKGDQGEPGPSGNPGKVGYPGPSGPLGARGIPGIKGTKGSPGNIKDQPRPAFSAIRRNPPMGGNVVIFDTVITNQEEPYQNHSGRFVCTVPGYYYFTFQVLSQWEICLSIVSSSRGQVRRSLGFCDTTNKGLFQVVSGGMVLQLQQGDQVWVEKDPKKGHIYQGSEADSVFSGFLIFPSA
T10 sequence (P02746 28-253, chain 2 of 3): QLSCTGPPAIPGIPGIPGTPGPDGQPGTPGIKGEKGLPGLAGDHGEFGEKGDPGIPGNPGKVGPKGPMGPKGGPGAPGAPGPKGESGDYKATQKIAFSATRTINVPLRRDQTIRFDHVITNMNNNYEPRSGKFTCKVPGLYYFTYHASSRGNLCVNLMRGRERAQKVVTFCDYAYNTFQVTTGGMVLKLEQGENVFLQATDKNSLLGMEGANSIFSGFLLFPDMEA
T10 sequence (P02747 29-245, chain 3 of 3): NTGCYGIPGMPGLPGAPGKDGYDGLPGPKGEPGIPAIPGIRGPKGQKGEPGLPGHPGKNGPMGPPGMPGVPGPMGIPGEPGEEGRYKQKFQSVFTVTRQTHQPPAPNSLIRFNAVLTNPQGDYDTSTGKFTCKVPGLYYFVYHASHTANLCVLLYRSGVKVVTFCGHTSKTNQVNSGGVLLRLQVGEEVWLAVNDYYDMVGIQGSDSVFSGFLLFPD
T5 sequence (P08637 other isoform, or with tags, fused parts or gaps mutant limits assumed): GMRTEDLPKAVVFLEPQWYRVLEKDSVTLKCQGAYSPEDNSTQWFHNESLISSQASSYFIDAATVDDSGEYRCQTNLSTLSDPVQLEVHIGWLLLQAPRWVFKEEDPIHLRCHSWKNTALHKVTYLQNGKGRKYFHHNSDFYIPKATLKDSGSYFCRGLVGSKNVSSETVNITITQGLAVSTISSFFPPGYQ
T4 sequence (P08637 17-208 limits assumed, change not shown): as the sequence (P08637 other isoform, or with tags, fused parts or gaps mutant limits assumed) above, with V160F counted along it
T7 sequence (P12314 16-374): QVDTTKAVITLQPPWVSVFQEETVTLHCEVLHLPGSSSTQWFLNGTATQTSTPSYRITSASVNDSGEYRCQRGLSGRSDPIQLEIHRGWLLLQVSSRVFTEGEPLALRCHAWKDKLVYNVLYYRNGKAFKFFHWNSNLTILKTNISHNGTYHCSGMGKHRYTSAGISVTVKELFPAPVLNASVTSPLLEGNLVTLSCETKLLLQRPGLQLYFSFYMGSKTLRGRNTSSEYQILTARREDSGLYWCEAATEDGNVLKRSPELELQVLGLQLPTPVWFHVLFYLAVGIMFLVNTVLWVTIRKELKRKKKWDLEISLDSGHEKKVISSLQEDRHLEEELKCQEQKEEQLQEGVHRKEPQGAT
Sequence of cynomolgus monkey PD-1 on transfected CHO-S cells (B0LAJ3 entry or part of it limits assumed): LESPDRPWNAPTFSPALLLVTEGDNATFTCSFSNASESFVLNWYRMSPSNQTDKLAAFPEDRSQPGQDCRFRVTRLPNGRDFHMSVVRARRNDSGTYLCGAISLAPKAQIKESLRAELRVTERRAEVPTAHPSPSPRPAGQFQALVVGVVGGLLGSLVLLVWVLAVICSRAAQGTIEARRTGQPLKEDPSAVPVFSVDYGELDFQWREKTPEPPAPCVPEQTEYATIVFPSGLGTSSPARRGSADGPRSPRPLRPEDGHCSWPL
Sequence of recombinant His-tagged human FcγRIa (Sino Biological 10256-H08S-B) (P12314 16-288 limits assumed, stated change not applied): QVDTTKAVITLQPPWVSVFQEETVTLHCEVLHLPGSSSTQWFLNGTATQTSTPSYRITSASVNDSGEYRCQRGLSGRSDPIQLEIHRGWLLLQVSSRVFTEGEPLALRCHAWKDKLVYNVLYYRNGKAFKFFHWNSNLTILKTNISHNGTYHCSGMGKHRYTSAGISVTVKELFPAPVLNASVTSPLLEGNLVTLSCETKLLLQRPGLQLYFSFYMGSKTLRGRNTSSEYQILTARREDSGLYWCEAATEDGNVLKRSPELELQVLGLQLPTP

B1: IgG1-b12, anti-HIV gp120 antibody with wild-type IgG1 Fc (antibody)
heavy: not shown
light: EIVLTQSPGTLSLSPGERATFSCRSSHSIRSRRVAWYQHKPGQAPRLVIHGVSNRASGISDRFSGSGSGTDFTLTITRVEPEDFALYYCQVYGASSYTFGQGTKLERKRTVAAPSVFIFPPSDEQLKSGTASVVCLLNNFYPREAKVQWKVDNALQSGNSQESVTEQDSKDSTYSLSSTLTLSKADYEKHKVYACEVTHQGLSSPVTKSFNRGEC
notes: also called WT IgG1-b12; ctrl; copies: 2 + 2
On to B1, for which, in [1], the “EC50 (read off the curve)” value was about 60 nM. Also, the binding result in assay [2], in assay [3], in [4], in assay [5] and in assay [6] was “binds” in each case.

B2: nivolumab (antibody, human IgG4 S228P, kappa)
heavy: not shown
light: not shown
notes: also called Opdivo
For B2, the Kd in assay [7] worked out at 133 nM. In [7], the koff was 0.0689 s⁻¹. For the same molecule, the kon in assay [7] turned out to be 518000 M⁻¹ s⁻¹. For the same molecule, the binding result in assay [8], in assay [9], in [10] and in assay [12] was “binds” in each case. In addition, the “EC50 (read off the curve)” value in assay [11] is about 0.2 µg/mL.

B3: pembrolizumab (antibody, human IgG4 S228P, kappa)
heavy: not shown
light: EIVLTQSPATLSLSPGERATLSCRASKGVSTSGYSYLHWYQQKPGQAPRLLIYLASYLESGVPARFSGSGSGTDFTLTISSLEPEDFAVYYCQHSRDLPLTFGGGTKVEIKRTVAAPSVFIFPPSDEQLKSGTASVVCLLNNFYPREAKVQWKVDNALQSGNSQESVTEQDSKDSTYSLSSTLTLSKADYEKHKVYACEVTHQGLSSPVTKSFNRGEC
notes: also called Keytruda
For B3, the “EC50 (read off the curve)” value is about 0.8 µg/mL in assay [11] and about 0.05 µg/mL in assay [14]. Moreover, the binding result in assay [13] and in assay [12] was “binds” in each case.

B4: IgG1-CD27-A carrying F405L-L234F-L235E-D265A in the IgG Fc domain (antibody, V domains shown)
VH: QVQLMQSGSELKKPGASVKVSCRASGYTFTTYAMNWVRQAPGQGPEWMGWINTNTGNPTYAQGFTGRFVFSLDTTVTTTYLQISSLKAEDTAVYFCAREAGSFDYWGQGTLVTVSS
VL: QSALTQPASVSGSPGQSITISCTGTSSDVYYYNYVSWYQQHPGRAPKLVIYDVSNRPSGVSNRFSGSKSGNTASLTISGLRAEDEADYYCSSYTVNRVWVFGGGTKLTVL
B4: the “EC50 (read off the curve)” value in [15] is about 0.04 µg/mL; in assay [16], about 0.1 µg/mL; in assay [17], about 0.2 µg/mL; in assay [18] it was about 0.03 µg/mL; in assay [19] it was about 0.06 µg/mL.

B5: IgG1-CD27-A (wild-type IgG1 Fc) (antibody)
heavy: not shown
light: QSALTQPASVSGSPGQSITISCTGTSSDVYYYNYVSWYQQHPGRAPKLVIYDVSNRPSGVSNRFSGSKSGNTASLTISGLRAEDEADYYCSSYTVNRVWVFGGGTKLTVLGQPKAAPSVTLFPPSSEELQANKATLVCLISDFYPGAVTVAWKADSSPVKAGVETTTPSKQSNNKYAASSYLSLTPEQWKSHRSYSCQVTHEGSTVEKTVAPTECS
notes: also called WT IgG1-CD27-A; IgG-CD27-A; copies: 2 + 2
Take B5: the binding result in assay [20] was “no binding (tested: 15 µg/mL)”.

B6: IgG1-CD27-A-E345R (antibody)
heavy: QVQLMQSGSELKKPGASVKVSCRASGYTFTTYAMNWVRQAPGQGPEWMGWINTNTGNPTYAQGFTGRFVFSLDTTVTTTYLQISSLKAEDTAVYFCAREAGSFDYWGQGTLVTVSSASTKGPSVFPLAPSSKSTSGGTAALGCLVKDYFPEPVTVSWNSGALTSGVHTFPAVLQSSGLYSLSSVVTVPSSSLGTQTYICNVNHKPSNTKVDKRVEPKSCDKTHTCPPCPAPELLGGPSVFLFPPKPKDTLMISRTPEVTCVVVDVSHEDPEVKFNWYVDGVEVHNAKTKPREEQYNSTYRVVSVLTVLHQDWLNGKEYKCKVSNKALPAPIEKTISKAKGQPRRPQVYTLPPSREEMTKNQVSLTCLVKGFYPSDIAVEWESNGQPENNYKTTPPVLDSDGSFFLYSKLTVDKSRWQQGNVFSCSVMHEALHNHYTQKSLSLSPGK
light: QSALTQPASVSGSPGQSITISCTGTSSDVYYYNYVSWYQQHPGRAPKLVIYDVSNRPSGVSNRFSGSKSGNTASLTISGLRAEDEADYYCSSYTVNRVWVFGGGTKLTVLGQPKAAPSVTLFPPSSEELQANKATLVCLISDFYPGAVTVAWKADSSPVKAGVETTTPSKQSNNKYAASSYLSLTPEQWKSHRSYSCQVTHEGSTVEKTVAPTECS
notes: Human IgG1 with E345R (Eu numbering); also called IgG-CD27-A-E345R; copies: 2 + 2
Turning to B6, in assay [21], the binding result was “binds”.

B7: IgG1-CD27-A-E430G (antibody)
heavy: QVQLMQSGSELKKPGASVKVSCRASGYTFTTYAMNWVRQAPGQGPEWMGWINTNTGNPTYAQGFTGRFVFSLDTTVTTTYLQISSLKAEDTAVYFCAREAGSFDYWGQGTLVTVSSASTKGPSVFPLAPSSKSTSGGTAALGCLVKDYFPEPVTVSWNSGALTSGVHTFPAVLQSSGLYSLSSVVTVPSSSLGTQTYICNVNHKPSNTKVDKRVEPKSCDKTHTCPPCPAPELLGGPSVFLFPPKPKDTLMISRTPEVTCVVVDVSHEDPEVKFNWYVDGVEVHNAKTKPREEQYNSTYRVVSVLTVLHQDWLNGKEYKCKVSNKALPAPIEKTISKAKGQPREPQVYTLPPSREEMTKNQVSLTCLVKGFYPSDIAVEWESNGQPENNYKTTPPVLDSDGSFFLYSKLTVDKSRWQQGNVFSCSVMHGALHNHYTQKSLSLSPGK
light: QSALTQPASVSGSPGQSITISCTGTSSDVYYYNYVSWYQQHPGRAPKLVIYDVSNRPSGVSNRFSGSKSGNTASLTISGLRAEDEADYYCSSYTVNRVWVFGGGTKLTVLGQPKAAPSVTLFPPSSEELQANKATLVCLISDFYPGAVTVAWKADSSPVKAGVETTTPSKQSNNKYAASSYLSLTPEQWKSHRSYSCQVTHEGSTVEKTVAPTECS
notes: Human IgG1 with E430G (Eu numbering); copies: 2 + 2
Take B7: the “EC50 (read off the curve)” value in [21] was about 0.03 µg/mL.

These data come from US20260250404A1 (Genmab, published 2026).
